T1: FcγRIIb (human, UniProt P31994 43-217)
T1 construct: extracellular domain; also called FcgRIIb; 2b
T1 sequence (looked up): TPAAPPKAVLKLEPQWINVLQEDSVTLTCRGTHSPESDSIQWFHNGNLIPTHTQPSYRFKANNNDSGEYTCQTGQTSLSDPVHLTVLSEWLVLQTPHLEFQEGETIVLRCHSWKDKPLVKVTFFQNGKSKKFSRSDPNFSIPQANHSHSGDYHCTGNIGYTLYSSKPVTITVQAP

T2: FcγRIIa R (human, UniProt P12318 34-217)
T2 construct: extracellular domain; also called FcgRIIa R type; 2aR
T2 sequence (looked up): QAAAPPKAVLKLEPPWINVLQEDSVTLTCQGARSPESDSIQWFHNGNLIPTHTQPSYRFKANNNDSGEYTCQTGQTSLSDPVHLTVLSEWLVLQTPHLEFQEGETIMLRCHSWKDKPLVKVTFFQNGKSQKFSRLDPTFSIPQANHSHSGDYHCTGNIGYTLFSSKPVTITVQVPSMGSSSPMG

B1: GpH7-A5/GpH7-B3 variant Y296_07I/GpL16-k0 (antibody, human IgG1, kappa)
heavy 1: not shown
heavy 2: not shown
light: DIVMTQSPLSLPVTPGEPASISCQASESLVHSNRNTYLHWYLQKPGQSPQLLIYKVSNRFSGVPDRFSGSGSGTDFTLKISRVEAEDVGVYYCSQNTHVPPTFGQGTKVEIERTVAAPSVFIFPPSDEQLKSGTASVVCLLNNFYPREAKVQWKVDNALQSGNSQESVTEQDSKDSTYSLSSTLTLSKADYEKHKVYACEVTHQGLSSPVTKSFNRGEC
notes: Alteration in one H chain only; also called He Ab Y296_07I
B2: GpH7-A5/GpH7-B3 variant T335_13S/GpL16-k0 (antibody, human IgG1, kappa)
heavy 1: not shown
heavy 2: not shown
light: B1 light
notes: Alteration in one H chain only; also called He Ab T335_13S
B3: GpH7-A5/GpH7-B3 variant Y296_08L/GpL16-k0 (antibody, human IgG1, kappa)
heavy 1: not shown
heavy 2: not shown
light: B1 light
notes: Alteration in one H chain only; also called He Ab Y296_08L
B4: GpH7-A5/GpH7-B3 variant Y296_02A/GpL16-k0 (antibody, human IgG1, kappa)
heavy 1: not shown
heavy 2: not shown
light: B1 light
notes: Alteration in one H chain only; also called He Ab Y296_02A
B5: GpH7-A5/GpH7-B3 variant Y300_16H/GpL16-k0 (antibody, human IgG1, kappa)
heavy 1: not shown
heavy 2: not shown
light: B1 light
notes: Alteration in one H chain only; also called He Ab Y300_16H
B6: GpH7-A5/GpH7-B3 variant Y300_07I/GpL16-k0 (antibody, human IgG1, kappa)
heavy 1: not shown
heavy 2: not shown
light: B1 light
notes: Alteration in one H chain only; also called He Ab Y300_07I
B7: GpH7-A5/GpH7-B3 variant Y296_03V/GpL16-k0 (antibody, human IgG1, kappa)
heavy 1: not shown
heavy 2: not shown
light: B1 light
notes: Alteration in one H chain only; also called He Ab Y296_03V
B8: GpH7-A5/GpH7-B3 variant E269_01G/GpL16-k0 (antibody, human IgG1, kappa)
heavy 1: not shown
heavy 2: not shown
light: B1 light
notes: heterodimerized anti-glypican-3 IgG1; alteration in one H chain only; also called He Ab
B9: GpH7-A5/GpH7-B3 variant D265_14T/GpL16-k0 (antibody, human IgG1, kappa)
heavy 1: not shown
heavy 2: not shown
light: B1 light
notes: as for B8
B10: GpH7-A5/GpH7-B3 variant D265_12R/GpL16-k0 (antibody, human IgG1, kappa)
heavy 1: not shown
heavy 2: not shown
light: B1 light
notes: as for B8
B11: GpH7-A5/GpH7-B3 variant E269_02A/GpL16-k0 (antibody, human IgG1, kappa)
heavy 1: not shown
heavy 2: not shown
light: B1 light
notes: as for B8
B12: GpH7-A5/GpH7-B3 variant D265_19Q/GpL16-k0 (antibody, human IgG1, kappa)
heavy 1: not shown
heavy 2: not shown
light: B1 light
notes: as for B8
B13: GpH7-A5/GpH7-B3 variant D265_11K/GpL16-k0 (antibody, human IgG1, kappa)
heavy 1: not shown
heavy 2: not shown
light: B1 light
notes: as for B8
B14: GpH7-A5/GpH7-B3 variant E269_16H/GpL16-k0 (antibody, human IgG1, kappa)
heavy 1: not shown
heavy 2: not shown
light: B1 light
notes: as for B8
B15: GpH7-A5/GpH7-B3 variant E269_15Y/GpL16-k0 (antibody, human IgG1, kappa)
heavy 1: not shown
heavy 2: not shown
light: B1 light
notes: as for B8
B16: GpH7-A5/GpH7-B3 variant E269_07I/GpL16-k0 (antibody, human IgG1, kappa)
heavy 1: not shown
heavy 2: not shown
light: B1 light
notes: as for B8
B17: GpH7-A5/GpH7-B3 variant E269_08L/GpL16-k0 (antibody, human IgG1, kappa)
heavy 1: not shown
heavy 2: not shown
light: B1 light
notes: as for B8
B18: GpH7-A5/GpH7-B3 variant E269_14T/GpL16-k0 (antibody, human IgG1, kappa)
heavy 1: not shown
heavy 2: not shown
light: B1 light
notes: as for B8
B19: GpH7-A5/GpH7-B3 variant D265_16H/GpL16-k0 (antibody, human IgG1, kappa)
heavy 1: not shown
heavy 2: not shown
light: B1 light
notes: as for B8
B20: GpH7-A5/GpH7-B3 variant D265_18N/GpL16-k0 (antibody, human IgG1, kappa)
heavy 1: not shown
heavy 2: not shown
light: B1 light
notes: as for B8
B21: GpH7-A5/GpH7-B3 variant D265_10E/GpL16-k0 (antibody, human IgG1, kappa)
heavy 1: not shown
heavy 2: not shown
light: B1 light
notes: as for B8
B22: GpH7-A5/GpH7-B3 variant E269_11K/GpL16-k0 (antibody, human IgG1, kappa)
heavy 1: not shown
heavy 2: not shown
light: B1 light
notes: as for B8
B23: GpH7-A5/GpH7-B3 variant E269_13S/GpL16-k0 (antibody, human IgG1, kappa)
heavy 1: not shown
heavy 2: not shown
light: B1 light
notes: as for B8
B24: GpH7-A5/GpH7-B3 variant E269_18N/GpL16-k0 (antibody, human IgG1, kappa)
heavy 1: not shown
heavy 2: not shown
light: B1 light
notes: as for B8
B25: GpH7-A5/GpH7-B3 variant E269_03V/GpL16-k0 (antibody, human IgG1, kappa)
heavy 1: not shown
heavy 2: not shown
light: B1 light
notes: as for B8
B26: GpH7-A5/GpH7-B3 variant D265_13S/GpL16-k0 (antibody, human IgG1, kappa)
heavy 1: not shown
heavy 2: not shown
light: B1 light
notes: as for B8
B27: GpH7-A5/GpH7-B3 variant E269_19Q/GpL16-k0 (antibody, human IgG1, kappa)
heavy 1: not shown
heavy 2: not shown
light: B1 light
notes: as for B8
B28: GpH7-A5/GpH7-B3 variant E269_06M/GpL16-k0 (antibody, human IgG1, kappa)
heavy 1: not shown
heavy 2: not shown
light: B1 light
notes: as for B8
B29: GpH7-A5/GpH7-B3 variant E269_12R/GpL16-k0 (antibody, human IgG1, kappa)
heavy 1: not shown
heavy 2: not shown
light: B1 light
notes: as for B8
B30: GpH7-A5/GpH7-B3 variant E269_04F/GpL16-k0 (antibody, human IgG1, kappa)
heavy 1: not shown
heavy 2: not shown
light: B1 light
notes: as for B8
B31: GpH7-A5/GpH7-B3 variant L328_11K/GpL16-k0 (antibody, human IgG1, kappa)
heavy 1: not shown
heavy 2: not shown
light: B1 light
notes: He Ab; mutation in the GpH7-B3 chain only; also called He Ab
B32: GpH7-A5/GpH7-B3 variant L328_12R/GpL16-k0 (antibody, human IgG1, kappa)
heavy 1: not shown
heavy 2: not shown
light: B1 light
notes: as for B31

target: T3, FcγRIa (human, UniProt P12314 16-292); experiment: SPR (Biacore), relative binding; control HeCon Ab GpH7-A5/GpH7-B3/GpL16-k0
T3 construct: extracellular domain; also called FcgRI; FcgRIa; not shown: His tag attached to the C terminus
T3 sequence (P12314 16-292): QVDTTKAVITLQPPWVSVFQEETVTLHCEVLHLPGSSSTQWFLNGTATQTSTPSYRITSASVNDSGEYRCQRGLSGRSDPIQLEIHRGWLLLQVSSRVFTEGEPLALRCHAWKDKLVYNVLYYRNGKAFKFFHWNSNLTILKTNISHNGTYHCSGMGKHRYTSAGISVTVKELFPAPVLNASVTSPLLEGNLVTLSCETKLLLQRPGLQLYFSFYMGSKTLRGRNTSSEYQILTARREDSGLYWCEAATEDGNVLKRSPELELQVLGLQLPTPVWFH

Row | Binder | He/Con_1a
1 | B1 | 104 % of control (=100)
2 | B2 | 105 % of control (=100)
3 | B3 | 104 % of control (=100)
4 | B4 | 103 % of control (=100)
5 | B5 | 111 % of control (=100)
6 | B6 | 108 % of control (=100)
7 | B7 | 104 % of control (=100)

target: T1, FcγRIIb; experiment: SPR (Biacore), captured antibody, FcγR as analyte; relative binding, control GpH7-A5/GpH7-B3/GpL16-k0 = 100
Method: (§1) The heterodimerized antibodies He Abs in which one of the H chains was introduced with an alteration were assayed for their binding activities to each activating FcγR and inhibitory FcγR according to the method described in Example 4. […] The activating FcγRs in FIGS. 26, 27, 28, and 29 are FcγRIa, FcγRIIa (R), FcγRIIa (H), and FcγRIIIa, respectively.
(§2) Analysis of interaction between objective antibody and the FcγR was carried out using Biacore T100 (GE Healthcare). HBS-EP+ (GE Healthcare) was used as the running buffer, and the measurement temperature was set to 25° C. Chips produced by immobilizing the antigen peptide by the amine coupling method to a Series S Sencor Chip CM5 (GE Healthcare), or alternatively, chips produced by allowing preliminarily biotinylated antigen peptides to interact with and immobilize onto a Series S Sensor Chip SA (certified) (GE Healthcare) were used. Antibodies of interest were captured onto an antigen peptide-immobilized chip, and allowed to interact to each FcγR diluted with running buffer. To regenerate and repeatedly use the chip, the antibodies captured on the chip were washed off by reacting 10 mM glycine-HCl, pH 1.5.

Row | Binder | He/Con_2b [control = 100]
8 | B8 | 51.5
9 | B9 | 16
10 | B10 | 15
11 | B11 | 49.9
12 | B12 | 33.4
13 | B13 | 14.9
14 | B14 | 38.5
15 | B15 | 44.7
16 | B16 | 43.9
17 | B17 | 42.9
18 | B18 | 50.6
19 | B19 | 38.3
20 | B20 | 6.1
21 | B21 | 38.2
22 | B22 | 17.8
23 | B23 | 47.8
24 | B24 | 44.8
25 | B25 | 45.1
26 | B26 | 11.3
27 | B27 | 44.3
28 | B28 | 46.7
29 | B29 | 25.2
30 | B30 | 45

target: T2, FcγRIIa R; experiment: as above
Method: as §1, §2

Row | Binder | He/Con_2aR [control = 100]
31 | B8 | 65.3
32 | B9 | 25.8
33 | B10 | 32.2
34 | B11 | 65.3
35 | B12 | 54.8
36 | B13 | 33.7
37 | B14 | 50.7
38 | B15 | 57.6
39 | B16 | 58.8
40 | B17 | 57.2
41 | B18 | 66
42 | B19 | 58
43 | B20 | 12.4
44 | B21 | 58.2
45 | B22 | 38.1
46 | B23 | 61.2
47 | B24 | 59.2
48 | B25 | 58.8
49 | B26 | 20.5
50 | B27 | 57.8
51 | B28 | 61.7
52 | B29 | 35
53 | B30 | 58.2

target: T2, FcγRIIa R; experiment: SPR (Biacore); He/Con_2aR divided by He/Con_2b (FcγRIIa R over FcγRIIb)

Row | Binder | He_2aR/2b (IIaR/IIb) [ratio]
54 | B8 | 1.27
55 | B9 | 1.61
56 | B10 | 2.15
57 | B11 | 1.31
58 | B12 | 1.64
59 | B13 | 2.26
60 | B14 | 1.32
61 | B15 | 1.29
62 | B16 | 1.34
63 | B17 | 1.33
64 | B18 | 1.3
65 | B19 | 1.51
66 | B20 | 2.02
67 | B21 | 1.52
68 | B22 | 2.14
69 | B23 | 1.28
70 | B24 | 1.32
71 | B25 | 1.3
72 | B26 | 1.81
73 | B27 | 1.31
74 | B28 | 1.32
75 | B29 | 1.39
76 | B30 | 1.29

target: T4, FcγRIa (human, UniProt P12314 16-292); experiment: ratio of He/Con_1a to He/Con_2b (FcγRIa over FcγRIIb), SPR
T4 construct: extracellular domain; also called FcgRI; CD64
Method: as §1, §2
T4 sequence (P12314 16-292): as above

Row | Binder | He_1a/2b (Ia/IIb)
77 | B31 | 10.5
78 | B32 | 8.51

target: T4, FcγRIa; experiment: SPR (Biacore), captured antibody, soluble FcγR; relative to GpH7-A5/GpH7-B3/GpL16-k0 = 100
Method: as §1, §2

Row | Binder | He/Con_1a
79 | B31 | 79.2 % of control
80 | B32 | 78.6 % of control
